Test [1] has as its target Photosystem I (PSI) of Chroococcidiopsis sp. PCC 7434 (Chroococcidiopsis sp. PCC 7434 (endogenous)). In words: native gel or EMSA.
Test [2] addresses Photosystem I (PSI) of Chroococcidiopsis sp. TS-821 (Chroococcidiopsis sp. TS-821 (endogenous)). In words: native gel or EMSA. On the technique in general: In EMSA bound probe runs differently from free probe, usually more slowly.
Test [3] has the same target. In words: sucrose density gradient ultracentrifugation.
Test [4] shares this target. Put plainly: native gel or EMSA. The source holds these as a separate data set.
In test [5] the target is Photosystem I (PSI) of Nodularia PCC 73104 (Nodularia PCC 73104 (endogenous)). In words: native gel or EMSA.
For test [6], the target named is Photosystem I (PSI) of Leptolyngbya sp. PCC 7124 (Leptolyngbya sp. PCC 7124 (endogenous)). In words: native gel or EMSA.
Test [7] deals with Photosystem I (PSI) of Synechocystis sp. PCC 7509 (Synechocystis sp. PCC 7509 (endogenous)). In words: native gel or EMSA.
Test [8] concerns the target Photosystem I (PSI) of Chroococcidiopsis sp. PCC 6712 (Chroococcidiopsis sp. PCC 6712 (endogenous)). Put plainly: transmission electron microscopy with single particle analysis.
Test [9] has the same target. Put plainly: native gel or EMSA.
For test [10], the target named is Photosystem I (PSI) of Planktothrix paucivesiculata PCC 8926 (Planktothrix paucivesiculata PCC 8926 (endogenous)). In words: native gel or EMSA.
For test [11], the target named is Photosystem I (PSI) of Synechocystis sp. PCC 6803, wild type (Synechocystis sp. PCC 6803 (endogenous)) (UniProt P37277). In words: native gel or EMSA.
Test [12] has as its target Photosystem I (PSI) of Nostoc sp. PCC 9335 (Nostoc sp. PCC 9335 (endogenous)). In words: native gel or EMSA.
Test [13] addresses Photosystem I (PSI) of Thermosynechococcus elongatus BP-1 (Thermosynechococcus elongatus BP-1 (endogenous)). Put plainly: native gel or EMSA.
Test [14] concerns the target Photosystem I (PSI) of Nostoc sp. PCC 7120 (Nostoc sp. PCC 7120 (endogenous)). Put plainly: native gel or EMSA.
For test [15], the target named is Photosystem I (PSI) of Fischerella muscicola PCC 7414 (Fischerella muscicola PCC 7414 (endogenous)). Put plainly: native gel or EMSA.
The target is the same in test [16]. Put plainly: transmission electron microscopy with single particle analysis.
The target is the same in test [17]. Put plainly: native gel or EMSA. This is another data set of the same source.
The target of test [18] is Photosystem I (PSI) of Microcystis sp. PCC 7806 (Microcystis sp. PCC 7806 (endogenous)). In words: native gel or EMSA.
Test [19] concerns the target Photosystem I (PSI) of Chroococcidiopsis thermalis PCC 7203 (Chroococcidiopsis thermalis PCC 7203 (endogenous)). Put plainly: native gel or EMSA.
Test [20] addresses Photosystem I (PSI) of Pseudanabaena sp. B SP48 (Pseudanabaena sp. B SP48 (endogenous)). Put plainly: native gel or EMSA.
The target in test [21] is Photosystem I (PSI) of Gloeocapsa sp. PCC 7428 (Gloeocapsa sp. PCC 7428 (endogenous)). In words: native gel or EMSA.
Test [22] has the same target. In words: native gel or EMSA. This is another data set of the same source.

Where “and” joins values, the source holds several entries; their conditions need not be identical. Identical values can stand only once. Like-named read-outs stand apart in the source and are kept apart here.

Usually stoichiometry N stands for a count of units in the complex or per binding partner.

With “Photosystem I (PSI) of Chroococcidiopsis sp. PCC 7434 (complex)”, in test [1], the stoichiometry N was 2.
“Photosystem I (PSI) of Chroococcidiopsis sp. TS-821 (complex)”: the stoichiometry N in test [2] was 3; in [3], 2; in [4] it was 4 and 2.
Regarding “Photosystem I (PSI) of Nodularia PCC 73104 (complex)”, in [5], the stoichiometry N stood at 4.
Turning to “Photosystem I (PSI) of Leptolyngbya sp. PCC 7124 (complex)”, the stoichiometry N in [6] came out at 2.
As for “Photosystem I (PSI) of Synechocystis sp. PCC 7509 (complex)”, in [7], the stoichiometry N is 4 and 2.
With “Photosystem I (PSI) of Chroococcidiopsis sp. PCC 6712 (complex)”, the stoichiometry N in test [8] and in test [9] was 3 each time.
“Photosystem I (PSI) of Planktothrix paucivesiculata PCC 8926 (complex)” gave a stoichiometry N in test [10] of 3.
As for “Photosystem I (PSI) of Synechocystis sp. PCC 6803, wild type (from UniProt P37277 1-157) (complex)”, the stoichiometry N in test [11] was determined as 3.
Turning to “Photosystem I (PSI) of Nostoc sp. PCC 9335 (complex)”, the stoichiometry N in test [12] is 3 and 2.
On to “Photosystem I (PSI) of Thermosynechococcus elongatus BP-1 (complex)”, for which the stoichiometry N in [13] came to 3.
Turning to “Photosystem I (PSI) of Nostoc sp. PCC 7120 (complex)”, the stoichiometry N in [14] is 4.
On to “Photosystem I (PSI) of Fischerella muscicola PCC 7414 (complex)”, for which the stoichiometry N in [15] came to 3; in test [16], 4; in test [17], 4.
Turning to “Photosystem I (PSI) of Microcystis sp. PCC 7806 (complex)”, the stoichiometry N in test [18] is 2 and 3.
Take “Photosystem I (PSI) of Chroococcidiopsis thermalis PCC 7203 (complex)”: the stoichiometry N in test [19] is 2.
As to “Photosystem I (PSI) of Pseudanabaena sp. B SP48 (complex)”, in test [20], the stoichiometry N was 3.
As for “Photosystem I (PSI) of Gloeocapsa sp. PCC 7428 (complex)”, the stoichiometry N in test [21] is 3; in [22], 4 and 2.

The values are drawn from publication doi:10.1101/544353.
